Data reported in article PMC8008340 (Cell, 2021).

Biological target: T1, WT RBD (Wuhan SARS-CoV-2 RBD) (Severe acute respiratory syndrome …, UniProt P0DTC2)
T1 construct: also called Wuhan RBD; native RBD
Experiment: crystal structure
Conditions: both partners purified

B1: EY6A Fab (Fab, V domains shown)
VH: EVQLVESGGGVVQPGRSLRLSCAASAFTFSSYDMHWVRQAPGKGLEWVAVISYDGSNKYYADSVKGRFTISRDNSKNTLYLQMNSLRAEDTAVYYCAKDGGKLWVYYFDYWGQGTLVTVSS
VL: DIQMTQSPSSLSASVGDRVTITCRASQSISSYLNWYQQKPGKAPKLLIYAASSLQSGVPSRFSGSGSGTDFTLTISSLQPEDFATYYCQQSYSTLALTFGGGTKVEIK
B1: binds.
